Values quoted from earlier work as cited in patent publication US5744316A, “Isolated, tyrosinase derived peptides and uses thereof” (Ludwig Institute for Cancer Research, priority 1996, dated 1998).
Where no end group is shown, it is not given here.

Key:
[1] = molecular target: HLA-B*4402 molecules (Homo sapiens, UniProt P01889, A223V/A65T/A93T/A95T/D201E/D98Y/E176V/E187L/E204Q/E69K/G107R/H137Y/K202T/L105A/L119I/N104T/N87E/Q56L/Q94N/R106L/R155S/R180D/S101N/S121R/S35A/S48T/T118I/V36M/W191S/Y140D/Y91S); details: Coulie et al. 1995
[2] = test system: HLA-B44; details: Burrows et al. 1990

Sequence | binding to HLA-B*4402 molecules [1] | binding by HLA-B44 [2]
EEKLIVVLF [SEQ ID NO: 11] | binds | 
EENLLDFVRF [SEQ ID NO: 9] |  | bound
